Data published in paper PMC11988119.

Target: GnRH-AIF chimeric protein
Test: co-IP; anti-AIF antibody (ab32516) on Protein A/G beads; nuclear fractions of Colo205 cells treated with GnRH-AIF (1 µM) or PBS for 24 h; overnight at 4 °C, washed with PBS; blots with anti-ENDOG and anti-AIFM1

B1: endonuclease G (enzyme)
chain: AELPPVPGGPRGPGELAKYGLPGLAQLKSRESYVLCYDPRTRGALWVVEQLRPERLRGDGDRRECDFREDDSVHAYHRATNADYRGSGFDRGHLAAAANHRWSQKAMDDTFYLSNVAPQVPHLNQNAWNNLEKYSRSLTRSYQNVYVCTGPLFLPRTEADGKSYVKYQVIGKNHVAVPTHFFKVLILEAAGGQIELRTYVMPNAPVDEAIPLERFLVPIESIERASGLLFVPNILARAGSLKAITAGSK
fold increase of co-precipitated ENDOG, cells treated with GnRH-AIF against PBS control: 1.6 fold
